Target: T1, human mtRNase P (TRMT10C-SDR5C1 and PRORP) (Homo sapiens, UniProt Q7L0Y3+Q99714)
T1 construct: made in house; host or cells: E. coli
T1 sequence (Q99714 1-261): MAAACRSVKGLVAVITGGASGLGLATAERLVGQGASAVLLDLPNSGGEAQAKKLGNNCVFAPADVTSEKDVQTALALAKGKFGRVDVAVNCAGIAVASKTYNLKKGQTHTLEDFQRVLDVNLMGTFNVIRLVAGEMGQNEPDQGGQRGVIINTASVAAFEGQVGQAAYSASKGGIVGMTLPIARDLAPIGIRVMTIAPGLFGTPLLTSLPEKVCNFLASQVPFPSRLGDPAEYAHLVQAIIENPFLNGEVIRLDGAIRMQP
T1 sequence (Q7L0Y3 40-403 partner): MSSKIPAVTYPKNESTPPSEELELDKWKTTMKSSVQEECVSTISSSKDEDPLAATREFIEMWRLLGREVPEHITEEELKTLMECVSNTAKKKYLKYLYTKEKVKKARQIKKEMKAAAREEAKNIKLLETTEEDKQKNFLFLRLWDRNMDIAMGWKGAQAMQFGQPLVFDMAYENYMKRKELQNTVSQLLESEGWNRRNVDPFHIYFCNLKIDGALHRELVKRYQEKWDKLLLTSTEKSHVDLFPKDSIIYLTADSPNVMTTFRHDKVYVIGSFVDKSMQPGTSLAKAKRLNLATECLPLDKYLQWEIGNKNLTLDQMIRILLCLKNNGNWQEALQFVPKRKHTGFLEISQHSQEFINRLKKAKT
Assay: RNase P assay, (mt)tRNA^His precursor cleavage
Assay type: biochemical
Conditions: freshly dissolved fragments, up to 10 µM; three independent experiments
Excerpt: Samples for analysis were withdrawn at defined intervals or at known linear-range time-points and phosphor imaging data quantitatively analyzed with ImageQuant TL 7 (GE Healthcare).

Row | Substance | effect on tRNA 5′-end processing by mtRNase P
1 | Aβ1–28: synthetic Aβ peptide fragment, amino acids 1–28 (rPeptide) | none of the two affected
2 | Aβ25–35: synthetic Aβ peptide fragment corresponding to amino acids 25–35 (rPeptide) (GSNKGAIIGLM; Amyloid-beta protein 40; UniProt P05067 696-706, looked up, fragment) | none of the two affected

— article PMC3673994 (PLoS ONE, 2013)
